Assay results from paper PMC8247607.

Biological target: T1, MSL2 CXC domain (CXCvir) (Drosophila virilis, UniProt O76733 514-567)
T1 sequence: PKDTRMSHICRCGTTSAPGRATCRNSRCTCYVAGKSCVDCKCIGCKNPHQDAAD
Assay: NMR 1H-15N HSQC titration

B1: S12 (dsDNA)
DNA 1: ATGAGCGAGATG
DNA 2: CATCTCGCTCAT
Kd: 2800 nM

B2: S12 mutant (dsDNA)
DNA 1: ATGAAAAAAATG
DNA 2: CATTTTTTTCAT
Kd: 2400 nM
